Source: the supplement of paper PMC7877785
± gives the uncertainty stated by the source.

Assay: self-splicing fitness, log relative to wild type (ln ratio); higher = more splicing; Tetrahymena group I intron in knt gene, E. coli kanamycin selection, DiMSum; sequences stand for … in CUCUCU…GGAGGGAAAAGUUAUCAGGCAUGCACCUGGUAGCUAGUCUUUAAACCAAUAGAUUGCAUCGGUUUAAAAGGCAAGACCGUCAAAUUGCGGGAAAGGGGUCAACAGCCGUUCAGUACCAAGUCUCAGGGGAAACUUUGAGAUGGCCUUGCAAAGGGUAUGGUAAUAAGCUGACGGACAUGGUCCUAACCACGCAGCCAAGUCCUAAGUCAACAGAUCUUCUGUUGAUAUGGAUGCAGUUCACAGACUAAAUGUCGGUCGGGGAAGAUGUAUUCUUCUCAUAAGAUAUAGUCGGACCUCUCCUUAAUGGGAGCUAGCGGAUGAAGUGAUGCAACACUGGAGCCGCUGGGAACUAAUUUGUAUGCGAAAGUAUAUUGAUUAGUUUUGGAGUACUCGUGGUCG
Procedure, shortened: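 A randomised library covering all eight P1ex-region intron nucleotides was built with the intron in the knt kanamycin-resistance gene on pET-22b(+) and held in E. coli BL21(DE3). Cells were grown overnight at 37°C or 30°C on LB agar, with or without 25 μg/mL kanamycin, plus 100 μg/mL carbenicillin, 50 μM IPTG and 0.2% rhamnose, and pooled colonies were amplicon-sequenced on an Illumina HiSeq 2500. DiMSum fitness is the error-weighted combination of wild-type-normalised replicate fold changes, kanamycin versus none.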

Sequence | self-splicing fitness (ln) (30 °C) | self-splicing fitness (ln) (37 °C)
CCCCAGCAAUAUUACGAGAU | -3.78 ± 0.17 | -2.3 ± 0.2
GAGGAGCAAUAUUACGGUUG | -3.94 ± 0.23 | -2.17 ± 0.2
ACGAAGCAAUAUUACGCCAA | -2.55 ± 0.31 | -1.98 ± 0.23
CCCCAGCAAUAUUACGAGCG | -4.16 ± 0.24 | -2.62 ± 0.23
UUUUAGCAAUAUUACGGAAG | -1.3 ± 0.17 | -0.731 ± 0.19
AGCAAGCAAUAUUACGCGAU | -3.51 ± 0.37 | -0.149 ± 0.18
GAGUAGCAAUAUUACGCACC | -0.317 ± 0.25 | -1.31 ± 0.24
GCUUAGCAAUAUUACGCAGA | -2.62 ± 0.22 | -3.24 ± 0.43
AUACAGCAAUAUUACGUUCU | 0.212 ± 0.1 | -0.221 ± 0.12
AGGGAGCAAUAUUACGUCAC | -2.07 ± 0.24 | -2.69 ± 0.26
CUAGAGCAAUAUUACGCUCG | -3.8 ± 0.46 | -1.69 ± 0.36
AGAAAGCAAUAUUACGCCAU | -3.16 ± 0.2 | -2.21 ± 0.2
AGCCAGCAAUAUUACGUUUU | -3.78 ± 0.14 | -2.06 ± 0.11
UCCAAGCAAUAUUACGGCCG | -2.7 ± 0.2 | -1.41 ± 0.16
AGCUAGCAAUAUUACGAGCA | -1.16 ± 0.21 | 0.177 ± 0.17
UAUUAGCAAUAUUACGUGGU | -2.57 ± 0.15 | -2.69 ± 0.23
CUCAAGCAAUAUUACGAUGC | -3.9 ± 0.15 | -2.95 ± 0.17
AGUAAGCAAUAUUACGACCG | -1.03 ± 0.17 | -0.428 ± 0.2
UGUUAGCAAUAUUACGAAUG | -1.1 ± 0.097 | -0.239 ± 0.13
UCGAAGCAAUAUUACGAUAU | -2.63 ± 0.31 | -1.52 ± 0.32
GCUGAGCAAUAUUACGCUGU |  | -2.51 ± 0.49
GUAUAGCAAUAUUACGAGAU | -3 ± 0.29 | -1.22 ± 0.22
GCGUAGCAAUAUUACGAGAC | -1.13 ± 0.2 | -2.37 ± 0.39
GCAGAGCAAUAUUACGUAAU | -2.29 ± 0.21 | -1.95 ± 0.35
UGCUAGCAAUAUUACGCUUA | -1.31 ± 0.11 | -0.517 ± 0.12
AACUAGCAAUAUUACGCACA | -0.559 ± 0.061 | 0.145 ± 0.077

Sequence | self-splicing fitness (ln) (30 °C) | self-splicing fitness (ln) (37 °C)
UCGUAGCAAUAUUACGUAGU | -3.61 ± 0.25 | -1.99 ± 0.13
UGUGAGCAAUAUUACGUGCG | -1.36 ± 0.11 | -1.06 ± 0.14
ACUGAGCAAUAUUACGGGAG | -3.29 ± 0.2 | -2.74 ± 0.2
AUCUAGCAAUAUUACGAGGG | -2.92 ± 0.16 | -2.18 ± 0.18
UGAUAGCAAUAUUACGUCUG | -0.116 ± 0.085 | 0.318 ± 0.1
ACCGAGCAAUAUUACGAGCC | -3.21 ± 0.23 | -3.23 ± 0.32
CACUAGCAAUAUUACGACAA | -3.16 ± 0.37 | -2.06 ± 0.29
CGCUAGCAAUAUUACGUCAA | -3.88 ± 0.23 | -3.07 ± 0.23
CAAUAGCAAUAUUACGGGGA | -3.12 ± 0.39 | -2.61 ± 0.24
GCCUAGCAAUAUUACGGGCC | -4.2 ± 0.26 | -3.41 ± 0.39
CUUAAGCAAUAUUACGGAAC |  | -1.89 ± 0.3
CCCUAGCAAUAUUACGUAGA | -4.06 ± 0.26 | -3.05 ± 0.26
GAUGAGCAAUAUUACGGUGG | -4.41 ± 0.23 | -1.73 ± 0.14
UCCUAGCAAUAUUACGGGUG | -0.384 ± 0.07 | 0.124 ± 0.087
UACUAGCAAUAUUACGCGCC |  | -1.37 ± 0.37
CGCUAGCAAUAUUACGGGGC | -2.87 ± 0.22 | -2.29 ± 0.2
AAUAAGCAAUAUUACGUAAG | -2.06 ± 0.072 | -0.567 ± 0.084
AGAGAGCAAUAUUACGGUCG | -3.33 ± 0.35 | -1.63 ± 0.35
ACCUAGCAAUAUUACGGAUG | -2.77 ± 0.11 | -1.24 ± 0.09
GUAUAGCAAUAUUACGGCUG | -1.2 ± 0.079 | -0.532 ± 0.097
AAAAAGCAAUAUUACGUUUA | -1.4 ± 0.1 | -0.799 ± 0.091
GGACAGCAAUAUUACGACUC | -0.16 ± 0.078 | 0.231 ± 0.097
AUGGAGCAAUAUUACGUAAU | -0.694 ± 0.15 | -0.189 ± 0.12
GUAUAGCAAUAUUACGUGGA | -3.62 ± 0.28 | -2.23 ± 0.18
ACAAAGCAAUAUUACGGGCG | -0.625 ± 0.05 | 0.111 ± 0.067
UGGGAGCAAUAUUACGUGCA | -1.07 ± 0.093 | -0.293 ± 0.11

Sequence | self-splicing fitness (ln) (30 °C) | self-splicing fitness (ln) (37 °C)
CAUGAGCAAUAUUACGUGCU | -3.6 ± 0.38 | -2.39 ± 0.32
ACGUAGCAAUAUUACGAGGG | -3.91 ± 0.26 | -2.92 ± 0.26
ACACAGCAAUAUUACGGGGG | -2.9 ± 0.14 | -2.45 ± 0.15
CAAAAGCAAUAUUACGUAGC | -3.1 ± 0.13 | -2.61 ± 0.24
UCACAGCAAUAUUACGCCCG | -0.978 ± 0.12 | -0.555 ± 0.14
UCGUAGCAAUAUUACGCCCG | -0.251 ± 0.19 | -0.113 ± 0.17
CGCGAGCAAUAUUACGGAUC | -2.62 ± 0.23 | -2.28 ± 0.25
CAUAAGCAAUAUUACGUGUC | -3.62 ± 0.2 | -2.55 ± 0.17
CCUAAGCAAUAUUACGACUG | -1.74 ± 0.15 | -0.483 ± 0.14
CACCAGCAAUAUUACGGUCU | -1.44 ± 0.044 | -1.04 ± 0.057
CCGAAGCAAUAUUACGCCAG | -1.32 ± 0.11 | -0.531 ± 0.13
CACAAGCAAUAUUACGCACC | -3.98 ± 0.37 | -2.4 ± 0.3
GCCAAGCAAUAUUACGACUA | -1.82 ± 0.17 | -1.77 ± 0.16
CUUAAGCAAUAUUACGGUGC | -3.83 ± 0.17 | -2.25 ± 0.2
UGAGAGCAAUAUUACGCCAA |  | -1.98 ± 0.37
CCGAAGCAAUAUUACGAAGA | -3.27 ± 0.39 | 
UAUAAGCAAUAUUACGCAAC | -3.03 ± 0.4 | 
GAAAAGCAAUAUUACGUGAA | -1.56 ± 0.065 | -1.33 ± 0.085
CCCAAGCAAUAUUACGGAGC | -3.64 ± 0.18 | -2.21 ± 0.17
AGUGAGCAAUAUUACGUAAA | -3.58 ± 0.22 | -1.3 ± 0.18
UGACAGCAAUAUUACGGAGU | -4.14 ± 0.2 | -2.79 ± 0.13
GACCAGCAAUAUUACGAUCG | -0.875 ± 0.091 | -0.444 ± 0.1
CCAGAGCAAUAUUACGACGA | -2.94 ± 0.25 | -2.34 ± 0.3
CCUUAGCAAUAUUACGCAAG |  | -3.09 ± 0.33
GCGUAGCAAUAUUACGAUGA | -0.962 ± 0.13 | 0.16 ± 0.14
CGCAAGCAAUAUUACGGUAG | -0.472 ± 0.053 | -0.388 ± 0.06
